According to publication PMC4734655:

Target: recombinant human IL-8 (interleukin-8) (human)
Experiment: SPR; Biacore; IL-8 immobilised on a CM5 chip by amine coupling (Fc2), BSA on the reference cell (Fc1); soluble recombinant Mtb proteins as analytes at 2.5, 5, 10 and 20 uM; 22 °C, PBS pH 7.4 with 0.005% P20; flow 5 ul/min; one-to-one model

Binder | Kd
recombinant M. tuberculosis rAtsG (His-tagged, from pHis-atsG) (enzyme) MTSERATGQRENLLIVHWHDLGRYLGVYHHPDVYSPRLDRLAAEGILFTRAHATAPLCTPSRGSLFTGRYPQSNGLVGLAHHGWEYRTGVQTLPQLLSESGWYSALFGMQHETSYPKRLGFDEFDVSNSYCEYVVAKAQDWLHNRVPALDGQRFLLTAGFFETHRPYPHERYRPADSAAVELPDYLPDTPEVRQDVAEFYGSIATADEAVGRLLDTLADTGLDASTWVVFVTDHGPAFPRAKSTLYDAGTGIALIIRPPTRRAMAPRVYDELFSGVDLVPTLLDLLRLEVPADVEGVSHAPALLAPDTENAAVRDHVYTAKTYHDSFDPIRAIRTKEYSYIENYAPRPLLDLPWDIQESPAGMAVAPLVKAPRPQRELYDLRADPTETNNLLAGDDSTQGVAAIAADLAVRLHDWRQRTADVIPSDFAGSRIAERYTETYLRIHRKTPTGRSAIAADRGIDEHCS | 6.83 µM
recombinant M. tuberculosis rGlmU (His-tagged, from pHis-glmU) (enzyme) MTFPGDTAVLVLAAGPGTRMRSDTPKVLHTLAGRSMLSHVLHAIAKLAPQRLIVVLGHDHQRIAPLVGELADTLGRTIDVALQDRPLGTGHAVLCGLSALPDDYAGNVVVTSGDTPLLDADTLADLIATHRAVSAAVTVLTTTLDDPFGYGRILRTQDHEVMAIVEQTDATPSQREIREVNAGVYAFDIAALRSALSRLSSNNAQQELYLTDVIAILRSDGQTVHASHVDDSALVAGVNNRVQLAELASELNRRVVAAHQLAGVTVVDPATTWIDVDVTIGRDTVIHPGTQLLGRTQIGGRCVVGPDTTLTDVAVGDGASVVRTHGSSSSIGDGAAVGPFTYLRPGTALGADGKLGAFVEVKNSTIGTGTKVPHLTYVGDADIGEYSNIGASSVFVNYDGTSKRRTTVGSHVRTGSDTMFVAPVTIGDGAYTGAGTVVREDVPPGALAVSAGPQRNIENWVQRKRPGSPAAQASKRASEMACQQPTQPPDADQTP | 5.24 µM
